Assay results as given in the supplement of paper PMC9112550, “Optimization of the antimicrobial peptide Bac7 by deep mutational scanning” (BMC Biology, 2022).

Tested on: Escherichia coli TOP10
Experiment: shrunken log2 fold change of peptide-encoding DNA abundance (4.5 h post-induction vs induction); higher = less antimicrobial activity (less host growth inhibition)
Settings: time post-induction: 4.5 h; library: site-saturation at positions 5, 18, 19, 20
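Also: peptides expressed intracellularly from a pBAD plasmid library in pooled LB shake-flask culture, induced with 0.3% L-arabinose, DNA abundance read by NGS, three biological replicates, DESeq2 with apeglm shrinkage.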

Sequence | shrunken log2 fold change
RRIRMRPPRLPRPRPRPHSAPRP | 0.283
RRIRTRPPRLPRPRPRPFYKPRP | -0.6
RRIRIRPPRLPRPRPRPPRIPRP | 0.333
RRIRDRPPRLPRPRPRPIYCPRP | 0.0039
RRIRIRPPRLPRPRPRPKYYPRP | -0.632
RRIRDRPPRLPRPRPRPQTIPRP | -0.164
RRIRFRPPRLPRPRPRPAGPPRP | 0.118
RRIRQRPPRLPRPRPRPLVLPRP | 0.00943
RRIRERPPRLPRPRPRPLCLPRP | -0.679
RRIRSRPPRLPRPRPRPISQPRP | -0.387
RRIRARPPRLPRPRPRPWICPRP | -0.0278
RRIRNRPPRLPRPRPRPSIDPRP | -0.782
RRIRRRPPRLPRPRPRPEFWPRP | 0.736
RRIRNRPPRLPRPRPRPMMVPRP | -0.194
RRIRPRPPRLPRPRPRPKTEPRP | -0.217
RRIRKRPPRLPRPRPRPPVKPRP | 0.181
RRIRQRPPRLPRPRPRPYKTPRP | -0.0141
RRIRQRPPRLPRPRPRPQFNPRP | -0.6
RRIRTRPPRLPRPRPRPMYVPRP | 0.0319
RRIRMRPPRLPRPRPRPLCQPRP | 0.0549
RRIRPRPPRLPRPRPRPHYYPRP | -0.439
RRIRTRPPRLPRPRPRPLGVPRP | -0.194
RRIRHRPPRLPRPRPRPFAQPRP | -0.163
RRIRMRPPRLPRPRPRPEWTPRP | 0.749
RRIRIRPPRLPRPRPRPNVNPRP | -0.594

Sequence | shrunken log2 fold change
RRIRPRPPRLPRPRPRPPVEPRP | 0.0793
RRIRERPPRLPRPRPRPTHNPRP | -0.206
RRIRWRPPRLPRPRPRPDKIPRP | -0.0504
RRIRCRPPRLPRPRPRPASWPRP | 0.219
RRIRIRPPRLPRPRPRPMEYPRP | -0.395
RRIRGRPPRLPRPRPRPWKAPRP | 0.0375
RRIRVRPPRLPRPRPRPRKNPRP | 0.0784
RRIRFRPPRLPRPRPRPFVGPRP | -0.0219
RRIRARPPRLPRPRPRPSVNPRP | -0.383
RRIRHRPPRLPRPRPRPACWPRP | 0.375
RRIRLRPPRLPRPRPRPQDTPRP | -0.409
RRIRWRPPRLPRPRPRPWGQPRP | -0.0525
RRIRSRPPRLPRPRPRPRWDPRP | 0.197
RRIRQRPPRLPRPRPRPGSTPRP | -0.146
RRIRQRPPRLPRPRPRPAYRPRP | -0.216
RRIRTRPPRLPRPRPRPGMSPRP | -0.352
RRIRWRPPRLPRPRPRPDHMPRP | -0.128
RRIRRRPPRLPRPRPRPVHYPRP | 0.0593
RRIRKRPPRLPRPRPRPKKSPRP | 0.575
RRIRKRPPRLPRPRPRPRKMPRP | 0.588
RRIRYRPPRLPRPRPRPMQLPRP | 0.219
RRIRQRPPRLPRPRPRPIWAPRP | -0.0792
RRIRRRPPRLPRPRPRPGAVPRP | 0.431
RRIRWRPPRLPRPRPRPRLFPRP | 0.432
RRIRVRPPRLPRPRPRPDMMPRP | 0.0644

Sequence | shrunken log2 fold change
RRIRNRPPRLPRPRPRPKNLPRP | 0.13
RRIRHRPPRLPRPRPRPRNIPRP | -0.326
RRIRKRPPRLPRPRPRPCIPPRP | -0.0433
RRIRSRPPRLPRPRPRPKPGPRP | 0.283
RRIRSRPPRLPRPRPRPYACPRP | -0.0148
RRIRCRPPRLPRPRPRPSTVPRP | -0.443
RRIRPRPPRLPRPRPRPVLEPRP | -0.147
RRIRIRPPRLPRPRPRPHVAPRP | -0.189
RRIRWRPPRLPRPRPRPIGGPRP | -0.0334
RRIRERPPRLPRPRPRPDCGPRP | 0.0191
RRIRMRPPRLPRPRPRPTWKPRP | -0.0427
RRIRYRPPRLPRPRPRPHWMPRP | -0.233
RRIRERPPRLPRPRPRPLDSPRP | -0.344
RRIRHRPPRLPRPRPRPKFSPRP | -0.304
RRIRGRPPRLPRPRPRPGMYPRP | 0.191
RRIRMRPPRLPRPRPRPQFWPRP | 0.245
RRIRSRPPRLPRPRPRPYLIPRP | -0.363
RRIRMRPPRLPRPRPRPHMKPRP | -0.158
RRIRWRPPRLPRPRPRPGEHPRP | 0.232
RRIRARPPRLPRPRPRPPKEPRP | 0.818
RRIRIRPPRLPRPRPRPTMKPRP | -0.309
RRIRLRPPRLPRPRPRPIQSPRP | -0.0832
RRIRTRPPRLPRPRPRPTHWPRP | 0.987
RRIRMRPPRLPRPRPRPFETPRP | -0.00884
RRIRHRPPRLPRPRPRPKIKPRP | -0.601
